According to patent US20180171024A1 (ADICET BIO, published 2018):

Experiments:
[1] = molecular target: T1, HLA-A2/MART1(26) on T2 cells (human); assay: flow cytometry, peptide-loaded T2 cells (10^-5 M)
T1 construct: whole, on cells

[2] = molecular target: T2, single-chain recombinant HLA-A2/WT1 126-134 complex (human); assay: SPR, B47B6 IgG captured via anti-mouse IgG, analyte scHLA-A2/WT1
T2 construct: also called scHLA-A2/WT1; MHC-WT1 peptide complex
Procedure: Purified IgGs were immobilized indirectly to the SPR sensor chip with anti-mouse. Analyte was purified recombinant single-chain HLA-A2/WT1 complexes generated by in vitro refolding of E. coli expressed scHLA-A2 complexes.
Immobilization of IgG TCR-like antibody was performed on a GLM (General Layer Medium) chip (Bio-Rad Laboratories, Hercules, Calif., USA) at 25° C. in the vertical orientation and the continuous running buffer was PBST (10 mM Na-phosphate, 150 mM NaCl, and 0.005% Tween 20, pH 7.4). Five channels were activated with 50 μl of a mixture of 0.04 M N-ethyl-N′-(3-dimethylaminopropyl) carbodiimide (EDC) and 0.01 M sulfo-N-hydroxysuccinimide (Sulfo-NHS) at a flow rate of 30 μl/min. The anti-mouse or human IgG/NeutrAvidin was diluted in 10 mM sodium acetate buffer pH 4.5 to a final concentration of 25 μg/ml and 150 μl were injected followed by an injection of 150 μl of 1 M ethanolamine-HCl pH 8.5. The IgG TCRL antibody/purified biotinylated single-chain recombinant HLA-A2/Tyrosinase/WT1/MAGE-A4/MAGE-A9/PAP complex ligand was diluted in PBST to 5-10 μg/ml and 90 μl were injected in the vertical orientation with a flow rate of 30 μl/min. The sixth channel remained empty to serve as a reference. […] All binding sensorgrams were collected, processed and analyzed using the integrated ProteOn Manager (Bio-Rad Laboratories, Hercules, USA) software. […]

[3] = molecular target: T3, HLA-A2/MAGE-A4 230-239 complex on cells (human); assay: flow cytometry, T2 cells loaded with 10^-4 M peptide
T3 construct: whole, on cells; also called MAGE-A4 peptide; HLA-A2+/MAGE-A4+ cells

[4] = molecular target: T2, single-chain recombinant HLA-A2/WT1 …; assay: SPR (ProteOn), IgG captured via anti-mouse IgG, scHLA-A2/WT1 as analyte
Procedure: (§1) Immobilization of IgG TCR-like antibody was performed on a GLM (General Layer Medium) chip (Bio-Rad Laboratories, Hercules, Calif., USA) at 25° C. in the vertical orientation and the continuous running buffer was PBST (10 mM Na-phosphate, 150 mM NaCl, and 0.005% Tween 20, pH 7.4). Five channels were activated with 50 μl of a mixture of 0.04 M N-ethyl-N′-(3-dimethylaminopropyl) carbodiimide (EDC) and 0.01 M sulfo-N-hydroxysuccinimide (Sulfo-NHS) at a flow rate of 30 μl/min. The anti-mouse or human IgG/NeutrAvidin was diluted in 10 mM sodium acetate buffer pH 4.5 to a final concentration of 25 μg/ml and 150 μl were injected followed by an injection of 150 μl of 1 M ethanolamine-HCl pH 8.5. The IgG TCRL antibody/purified biotinylated single-chain recombinant HLA-A2/Tyrosinase/WT1/MAGE-A4/MAGE-A9/PAP complex ligand was diluted in PBST to 5-10 μg/ml and 90 μl were injected in the vertical orientation with a flow rate of 30 μl/min. The sixth channel remained empty to serve as a reference. […] Running buffer was injected simultaneously in the sixth channel for double referencing to correct for loss of the captured antibodies from the chip sensor surface during the experiment. All binding sensorgrams were collected, processed and analyzed using the integrated ProteOn Manager (Bio-Rad Laboratories, Hercules, USA) software. […]

[5] = molecular target: T4, MAGE-A4-A9; assay: alanine scan, flow cytometry, peptide-loaded T2 cells (10^-5 M), antibody 10 µg/ml
T4 construct: also called HLA-A2/MAGE-A4-A9 on T2 cells
Procedure: (§2) FIG. 55: Epitope specificity determination by Alanine scanning mutagenesis. The mutant MAGE-A4 peptides with alanine substitutions at positions 1, 2, 3, 4, 5, 6, 7, 8 and 9 were synthesized. […] The native and mutant MAGE-A4 peptides were loaded onto T2 cells APCs at a concentration of 10⁻⁵ M for 12 hrs at 37° C. […] MFI values for cells loaded with mutant and wild type peptides were compared. The relative effect of each Ala substitution was expressed as percentage of the binding to native wild-type peptide.

[6] = molecular target: T5, MAGE-A4-A3; assay: as above
T5 construct: also called HLA-A2/MAGE-A4-A3 on T2 cells
Procedure: as §2

[7] = molecular target: T6, MAGE-A4-A10; assay: as above
T6 construct: also called HLA-A2/MAGE-A4-A10 on T2 cells
Procedure: as §2

[8] = molecular target: T7, MAGE-A4-A1; assay: as above
T7 construct: also called HLA-A2/MAGE-A4-A1 on T2 cells
Procedure: as §2

[9] = molecular target: T8, MAGE-A4-A8; assay: as above
T8 construct: also called HLA-A2/MAGE-A4-A8 on T2 cells
Procedure: as §2

[10] = molecular target: T9, HLA-A2/MAGE-A4-A7 on T2 cells (human); assay: flow cytometry (MFI), T2 cells loaded with Ala-mutated peptide
T9 construct: whole, on cells

[11] = molecular target: T10, HLA-A2/MAGE-A4-A2 on T2 cells (human); assay: as above
T10 construct: whole, on cells

[12] = molecular target: T11, HLA-A2/MAGE-A4-A5 on T2 cells (human); assay: as above
T11 construct: whole, on cells

[13] = molecular target: T12, HLA-A2/MAGE-A4-A4 on T2 cells (human); assay: as above
T12 construct: whole, on cells

[14] = molecular target: T13, HLA-A2/MAGE-A4-A6 on T2 cells (human); assay: as above
T13 construct: whole, on cells

[15] = molecular target: T14, single-chain recombinant HLA-A2/MAGE-A4 230-239 complex (human); assay: SPR (ProteOn); text: IgG captured via anti-mouse IgG, scHLA-A2/MAGE-A4 as analyte (FIG. 54 legend: complex on NeutrAvidin, Fab as analyte)
T14 construct: also called scHLA-A2/MAGE-A4

[16] = molecular target: T3, HLA-A2/MAGE-A4 230-239 complex on cells; assay: flow cytometry, peptide-loaded T2 cells (10^-5 M)
[17] = molecular target: T1, HLA-A2/MART1(26) on T2 cells; assay: flow cytometry, T2 cells loaded with MART1 peptide
[18] = molecular target: T15, single-chain recombinant HLA-A2/Tyrosinase369-377 complex (human); assay: SPR (ProteOn), IgG captured via anti-mouse IgG, scHLA-A2/Tyrosinase as analyte; apparent affinity
T15 construct: also called scHLA-A2/Tyrosinase; HLA-A2/TyrD369-377
Procedure: as §1

[19] = molecular target: T15, single-chain recombinant …; assay: SPR, IgG captured by anti-mouse IgG, analyte scHLA-A2/Tyrosinase (EM3-TyrD)
Procedure: as §1

[20] = molecular target: T3, HLA-A2/MAGE-A4 230-239 complex on cells; assay: flow cytometry, peptide-loaded T2 cells (10^-5 M); remark: listed apart in the source
[21] = molecular target: T16, PAP112-A1; assay: alanine scan, flow cytometry, peptide-loaded T2 cells (10^-5 M), antibody 10 µg/ml
T16 construct: also called PAP A1; HLA-A2/PAP A1 on T2 cells

[22] = molecular target: T17, PAP112-A9 (Homo sapiens); assay: as above
T17 construct: cell surface;cell surface complex; also called PAP A9; HLA-A2/PAP A9 on T2 cells

B1: B47B6 TCR-like antibody (IgG) (antibody, V domains shown)
VH: EVQLVESGGGLVKPGGSLKLSCAASGFVFSSYDMSWVRQAQEKRLEWVAYMSSGGGTYYPDTVKGRFTISRDNAKNTLHLQMSSLKSEDTAMYYCARHDEITNFDYWGQGTTLTVSS
VL: DIVLTQSPATLSVSPGDSVSLSCRASQSISNSLHWYQQKSHESPRLLIKYASQSISGIPSRFSGSGSGTDFTLSINSVETEDFGMYFCQQSYSWPLTFGAGSKLELKR
notes: also called WT1 B47B6
With B1 the binding result [1] was “no binding (tested: 10 µg/ml)”, the Kd [2] was 4.37 nM and the binding result [3] was “no binding”. It also gave a Kd [4] of 4.4 nM.

B2: C106B9 TCR-like antibody (IgG) (antibody, V domains shown)
VH: QVQLQQSGGEVMKPGASVKLSCKATGYTFTGYWIEWIKQRPGHGLEWIGEILPGSGGTNYNEKFKGKATFTAHTSSNTAYMQLSSLTTEDSAIYYCARDSNSFTYWGQGTLVTVSS
VL: QIVLTQSPAIMSASPGEKVTITCSVSSSVDYIHWFQQKPGTSPKFWIYSTSILASGVPARFSGSGSGTSYSLTISRMEAEDAATYYCQQRSSYPPTFGSGTKLEIKR
notes: also called MAGE-A4 C106B9
With B2 the “% of MAGE-A4 binding” value [5] was 79%, the “% of MAGE-A4 binding” value [6] was 1% and the “% of MAGE-A4 binding” value [7] was 4%. The “% of MAGE-A4 binding” value [8] was 106%, the “% of MAGE-A4 binding” value [9] was 168% and the “percent decrease in binding vs wild-type peptide” value (shortened to “percent decrease in binding”) [10] was 90%. For the same binder, the “percent decrease in binding” value [11] was 33%, the “percent decrease in binding” value [12] was 90% and the “percent decrease in binding” value [13] was 90%. The “percent decrease in binding” value [14] was 90% and the Kd [15] was 8.8 nM.

B3: 905-2-D7 TCR-like antibody (IgG) (antibody, V domains shown)
VH: QVQLKESGPGLVAPSQSLSITCTVSGFSLTSYGVHWVRQPPGKGLEWLGVIWAGGTTNYNSALMSRLSISRDNSKSQVFLEMNSLQTDDTAIYYCARDGHFHFDFWGQGTTLTVSS
VL: DIQMTQSPASLSVSVGETVTITCRASDIIYSNLAWYQQKQGKSPQLLVYAATNLAAGVPSRFSGSGSGTQYSLKINSLQSEDFGTYYCQHFWGSSISFGSGTKLEIKR
notes: also called Tyr D7
B3: no binding (tested: 10 µg/ml) [16]; no binding (tested: 10 µg/ml) [17].

B4: 906-11-D11 TCR-like antibody (IgG) (antibody, V domains shown)
VH: not shown
VL: DIQMTQSPSSLSASLGGKVTITCKASQDIHNYIAWYQHKPVKGPRLLIHYTSTLQPGTPSRFSGSGSGRDYSFSISNLEPEDIATYYCLQYDNLWTFGGGTKLEIKR
notes: also called Tyr D11
For B4, the Kd [18] was 4.1 nM, the binding result [16] was “no binding (tested: 10 µg/ml)” and the binding result [17] was “no binding (tested: 10 µg/ml)”. It also gave a Kd [19] of 4.14 nM.

B5: D10A3 TCR-like antibody (IgG) (antibody, V domains shown)
VH: EVQLQQFGTELVKPGASVKISCKASGYTFTDYNMDWVKQSHGKSLEWIGDINPNYDTTTYNQKFKGKATLTVDKSSSTAYMELRSLTSEDTAVFYCARRNYGNYVGFDFWGQGTTLTVSS
VL: NIVLTQTPKFLLVSAGDRVSITCKASQRVNNDVAWYQQKPGQSPKLLIYYASNRYTGVPDRFTGSGYGTDFTFTISTVQAEDLAVYFCQQDYSSPFTFGSGTKLEIKR
notes: also called PAP D10A3
B5 was tested, and the binding result [20] was “no binding (tested: 10 µg/ml)”, the “% of PAP112 binding” value [21] was 83% and the “% of PAP112 binding” value [22] was 1%.
